Source: article PMC2898367 (The Journal of Biological Chemistry, 2010)

T1: CD81 tagged with AcGFP or DsRED, P60033
T1 chain: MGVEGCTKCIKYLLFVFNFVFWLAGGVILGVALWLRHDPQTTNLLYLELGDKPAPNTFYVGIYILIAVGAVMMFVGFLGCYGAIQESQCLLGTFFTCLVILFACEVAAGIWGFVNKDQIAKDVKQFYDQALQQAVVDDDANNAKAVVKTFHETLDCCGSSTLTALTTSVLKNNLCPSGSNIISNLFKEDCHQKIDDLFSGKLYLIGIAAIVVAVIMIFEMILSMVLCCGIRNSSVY

T2: CD81 tagged with AcGFP or DsRED (UniProt P60033 1-236)
T2 sequence (looked up): T1 chain

T3: DsRED-tagged Occludin (UniProt Q16625 1-522)
T3 sequence (looked up): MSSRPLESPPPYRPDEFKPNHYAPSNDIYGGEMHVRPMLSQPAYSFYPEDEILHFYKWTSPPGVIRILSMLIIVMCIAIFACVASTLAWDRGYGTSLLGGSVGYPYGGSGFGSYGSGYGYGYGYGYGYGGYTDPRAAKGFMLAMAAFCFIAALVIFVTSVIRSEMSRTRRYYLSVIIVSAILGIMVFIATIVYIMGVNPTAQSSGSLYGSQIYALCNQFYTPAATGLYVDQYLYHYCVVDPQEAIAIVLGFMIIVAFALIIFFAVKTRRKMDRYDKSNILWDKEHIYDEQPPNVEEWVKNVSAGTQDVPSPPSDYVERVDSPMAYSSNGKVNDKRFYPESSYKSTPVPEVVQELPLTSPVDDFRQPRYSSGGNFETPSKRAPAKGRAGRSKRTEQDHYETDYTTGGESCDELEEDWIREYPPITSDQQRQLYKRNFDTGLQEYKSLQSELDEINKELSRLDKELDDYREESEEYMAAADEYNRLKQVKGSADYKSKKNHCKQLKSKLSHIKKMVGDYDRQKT

B1: CD81 tagged with AcGFP or DsRED, P60033 1-236 (natural protein)
chain: T1 chain
B2: AcGFP-tagged Claudin-9 (natural protein, UniProt O95484 1-217, looked up)
chain: MASTGLELLGMTLAVLGWLGTLVSCALPLWKVTAFIGNSIVVAQVVWEGLWMSCVVQSTGQMQCKVYDSLLALPQDLQAARALCVIALLLALLGLLVAITGAQCTTCVEDEGAKARIVLTAGVILLLAGILVLIPVCWTAHAIIQDFYNPLVAEALKRELGASLYLGWAAAALLMLGGGLLCCTCPPPQVERPRGPRLGYSIPSRSGASGLDKRDYV
B3: AcGFP-tagged Claudin-12 (natural protein, UniProt P56749 1-244, looked up)
chain: MGCRDVHAATVLSFLCGIASVAGLFAGTLLPNWRKLRLITFNRNEKNLTVYTGLWVKCARYDGSSDCLMYDTTWYSSVDQLDLRVLQFALPLSMLIAMGALLLCLIGMCNTAFRSSVPNIKLAKCLVNSAGCHLVAGLLFFLAGTVSLSPSIWVIFYNIHLNKKFEPVFSFDYAVYVTIASAGGLFMTSLILFIWYCTCKSLPSPFWQPLYSHPPSMHTYSQPYSARSRLSAIEIDIPVVSHTT
B4: AcGFP-tagged Claudin-6 (natural protein, UniProt P56747 1-220, looked up)
chain: MASAGMQILGVVLTLLGWVNGLVSCALPMWKVTAFIGNSIVVAQVVWEGLWMSCVVQSTGQMQCKVYDSLLALPQDLQAARALCVIALLVALFGLLVYLAGAKCTTCVEEKDSKARLVLTSGIVFVISGVLTLIPVCWTAHAIIRDFYNPLVAEAQKRELGASLYLGWAASGLLLLGGGLLCCTCPSGGSQGPSHYMARYSTSAPAISRGPSEYPTKNYV
B5: AcGFP-tagged Claudin-11 (natural protein, UniProt O75508 1-207, looked up)
chain: MVATCLQVVGFVTSFVGWIGVIVTTSTNDWVVTCGYTIPTCRKLDELGSKGLWADCVMATGLYHCKPLVDILILPGYVQACRALMIAASVLGLPAILLLLTVLPCIRMGQEPGVAKYRRAQLAGVLLILLALCALVATIWFPVCAHRETTIVSFGYSLYAGWIGAVLCLVGGCVILCCAGDAQAFGENRFYYTAGSSSPTHAKSAHV
B6: Claudin-1 tagged with AcGFP or DsRED (natural protein, UniProt O95832 1-211, looked up)
chain: MANAGLQLLGFILAFLGWIGAIVSTALPQWRIYSYAGDNIVTAQAMYEGLWMSCVSQSTGQIQCKVFDSLLNLSSTLQATRALMVVGILLGVIAIFVATVGMKCMKCLEDDEVQKMRMAVIGGAIFLLAGLAILVATAWYGNRIVQEFYDPMTPVNARYEFGQALFTGWAAASLCLLGGALLCCSCPRKTTSYPTPRPYPKPAPSSGKDYV
B7: AcGFP-tagged Claudin-17 (natural protein, UniProt P56750 1-224, looked up)
chain: MAFYPLQIAGLVLGFLGMVGTLATTLLPQWRVSAFVGSNIIVFERLWEGLWMNCIRQARVRLQCKFYSSLLALPPALETARALMCVAVALSLIALLIGICGMKQVQCTGSNERAKAYLLGTSGVLFILTGIFVLIPVSWTANIIIRDFYNPAIHIGQKRELGAALFLGWASAAVLFIGGGLLCGFCCCNRKKQGYRYPVPGYRVPHTDKRRNTTMLSKTSTSYV
B8: AcGFP-tagged Claudin-4 (natural protein, UniProt O14493 1-209, looked up)
chain: MASMGLQVMGIALAVLGWLAVMLCCALPMWRVTAFIGSNIVTSQTIWEGLWMNCVVQSTGQMQCKVYDSLLALPQDLQAARALVIISIIVAALGVLLSVVGGKCTNCLEDESAKAKTMIVAGVVFLLAGLMVIVPVSWTAHNIIQDFYNPLVASGQKREMGASLYVGWAASGLLLLGGGLLCCNCPPRTDKPYSAKYSAARSAAASNYV

Tests used:
Assay in all cases: FRET or BRET
[1] = biological target: CD81 tagged with AcGFP or DsRED (UniProt P60033)
[2] = biological target: T1, CD81 tagged with AcGFP or DsRED, P60033; details: remark: other sources report otherwise
[3] = biological target: B6
[4] = biological target: T2, CD81 tagged with AcGFP or DsRED
DsRED-tagged Occludin = biological target: T3, DsRED-tagged Occludin

Molecule: Claudin-1 tagged with AcGFP or DsRED (from UniProt O95832 1-211) (natural protein)
- %FRET [1]: 25%
- %FRET (after 10 mM MβCD, 1 h) [1]: 35%

Molecule: B1
- %FRET (after 10 mM MβCD, 1 h) [2]: 55%
- %FRET (untreated cells) [2]: 63%

Molecule: B2
- %FRET [3]: 18%
- %FRET [4]: 63%
- %FRET (DsRED-tagged Occludin): 18%

Molecule: B3
- %FRET (DsRED-tagged Occludin): 38%

Molecule: B4
- %FRET [3]: 31%
- %FRET [4]: 50%
- %FRET (DsRED-tagged Occludin): 27%

Molecule: B5
- %FRET (DsRED-tagged Occludin): 23%

Molecule: B6
- %FRET (DsRED-tagged Occludin): 48%

Molecule: B7
- %FRET (DsRED-tagged Occludin): 40%

Molecule: B8
- %FRET [3]: 18%
